The labels stand for the following.
B1: EcRE-like 2 probe (Bio-ERRE-2) (dsDNA)
DNA 1: TAAAGAACCTTTATTAAAATTAAAATA
DNA 2: TATTTTAATTTTAATAAAGGTTCTTTA
B2: EcRE-like 1 probe (Bio-ERRE-1) (dsDNA)
DNA 1: ATTAAGTAGCAGTAAACTGTGACCT
DNA 2: AGGTCACAGTTTACTGCTACTTAAT
B3: EcRE-like 8 probe (Bio-ERRE-8) (dsDNA)
DNA 1: GAGACAGCGTTAGCTGATATTCTAAAT
DNA 2: ATTTAGAATATCAGCTAACGCTGTCTC
B4: EcRE-like 3 probe (Bio-ERRE-3) (dsDNA)
DNA 1: GTTCCGAAATAAAATTACCTGATGGTA
DNA 2: TACCATCAGGTAATTTTATTTCGGAAC
B5: EcRE-like 1 mutant probe (Bio-ERRE-1 mut) (dsDNA)
DNA 1: ATTAGACGATGACGGGTCATGACCT
DNA 2: AGGTCATGACCCGTCATCGTCTAAT

The data set addresses T1, BmEcR (ecdysone receptor);BmUSP (ultraspiracle) (Bombyx mori;Bombyx mori, UniProt P49881;P49700 1-606;1-462, |).
T1 sequence 1: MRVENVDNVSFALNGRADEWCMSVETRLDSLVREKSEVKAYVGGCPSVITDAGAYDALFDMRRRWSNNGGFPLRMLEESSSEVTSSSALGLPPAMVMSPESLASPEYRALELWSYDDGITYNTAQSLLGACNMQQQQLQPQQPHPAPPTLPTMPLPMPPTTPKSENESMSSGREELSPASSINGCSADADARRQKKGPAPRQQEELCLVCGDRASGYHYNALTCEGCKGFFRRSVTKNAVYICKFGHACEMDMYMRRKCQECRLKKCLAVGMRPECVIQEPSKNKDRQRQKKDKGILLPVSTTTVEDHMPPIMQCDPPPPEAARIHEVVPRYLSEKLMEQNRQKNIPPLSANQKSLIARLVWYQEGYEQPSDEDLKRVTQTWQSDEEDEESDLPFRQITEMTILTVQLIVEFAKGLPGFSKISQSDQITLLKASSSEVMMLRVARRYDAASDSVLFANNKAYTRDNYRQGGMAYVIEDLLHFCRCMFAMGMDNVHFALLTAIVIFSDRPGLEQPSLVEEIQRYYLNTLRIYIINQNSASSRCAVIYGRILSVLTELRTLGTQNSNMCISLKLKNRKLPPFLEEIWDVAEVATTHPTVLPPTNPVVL
T1 sequence 2: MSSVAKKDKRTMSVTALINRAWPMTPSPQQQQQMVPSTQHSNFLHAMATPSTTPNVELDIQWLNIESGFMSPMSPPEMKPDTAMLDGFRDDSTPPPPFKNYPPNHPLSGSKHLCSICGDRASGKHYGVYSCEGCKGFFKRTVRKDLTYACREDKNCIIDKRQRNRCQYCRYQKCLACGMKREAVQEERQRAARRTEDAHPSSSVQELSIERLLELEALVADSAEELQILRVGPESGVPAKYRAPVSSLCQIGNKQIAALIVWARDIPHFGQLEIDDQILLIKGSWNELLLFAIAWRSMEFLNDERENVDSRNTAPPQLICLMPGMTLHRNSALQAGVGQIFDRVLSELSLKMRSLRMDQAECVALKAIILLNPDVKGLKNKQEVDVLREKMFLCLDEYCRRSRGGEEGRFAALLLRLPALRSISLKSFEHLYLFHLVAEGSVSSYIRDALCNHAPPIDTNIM
As to the kind of experiment: EMSA; EMSA: 25 C for 25 min; Beyotime chemiluminescent EMSA kit (binding buffer not stated); 5% native PAGE in Tris-borate-EDTA (45 mM Tris-borate, 1 mM EDTA, pH 8.3); probe 5 uM, BmEcR 0.3 ug/uL, BmUSP 0.45 ug/uL. Conditions: protein: recombinant;recombinant; tags: ;; copies: 1;1; label: 3'-biotin; blunt.
Regarding B1, the binding result is given as “no binding”.
With B2, the binding result is given as “binds”.
As for B3, the binding result is “no binding”.
Regarding B4, the binding result is “no binding”.
The entry for B5 is “no binding”.

(Values after paper PMC8804299, “The Response of the Estrogen-Related Receptor to 20-Hydroxyecdysone in Bombyx mori: Insight Into the Function of Estrogen-Related Receptor in Insect 20-Hydroxyecdysone Signaling Pathway”.)
